The target of experiment [1] is FLAG-epitope-tagged TNF-epsilon (in conditioned medium) (human) (UniProt O75888). Briefly: co-immunoprecipitation with M2 anti-FLAG antibody, Western detection with anti-FLAG antibody.
The target in experiment [2] is T1, TACI-Fc fusion protein (Homo sapiens (Human), UniProt O14836 1-159).
T1 construct: The dimeric form was enriched by size exclusion; also called full-length TACI-Fc; soluble TACI-Fc; not shown: Fc portion from vector pC4-Fc
T1 sequence: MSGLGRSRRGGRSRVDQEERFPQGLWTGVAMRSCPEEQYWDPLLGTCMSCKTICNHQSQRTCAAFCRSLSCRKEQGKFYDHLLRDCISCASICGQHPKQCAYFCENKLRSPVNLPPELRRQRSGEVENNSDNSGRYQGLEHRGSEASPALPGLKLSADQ
In words: BIAcore (SPR), TACI-Fc amine-coupled to CM5 chip, TNF-epsilon as analyte.

B1: TACI-Fc fusion protein (Fc fusion, not shown: a dimerising Fc or GST)
chain: MSGLGRSRRGGRSRVDQEERFPQGLWTGVAMRSCPEEQYWDPLLGTCMSCKTICNHQSQRTCAAFCRSLSCRKEQGKFYDHLLRDCISCASICGQHPKQCAYFCENKLRSPVNLPPELRRQRSGEVENNSDNSGRYQGLEHRGSEASPALPGLKLSADQ
On to B1, for which the percent of the TNF-epsilon present in the conditioned medium found in the immunoprecipitated TACI-Fc-TNF-epsilon complex in experiment [1] was 20%.

B2: TNF-epsilon, trimeric form isolated by size exclusion chromatography (ligand)
chain: AVLTQKQKNDSDVTEVMWQPALRRGRGLQAQGYGVRIQDAGVYLLYSQVLFQDVTFTMGQVVSREGQGRQETLFRCIRSMPSHPDRAYNSCYSAGVFHLHQGDILSVIIPRARAKLNLSPHGTFLGFVKL
notes: This is the protein flowed over the TACI-Fc chip
Regarding B2, in experiment [2], binding was put at a Kd of 6 nM. That is a single-digit nanomolar value.
